Legend:
[1] = target: HA1 F1 (aa 11-329) displayed on yeast as Aga2 fusion (Influenza A virus H5, Re8 vaccine …, UniProt Q9Q0U6, strain); assay: immunostaining of cells or tissue; details: one partner purified
[2] = target: HA1 fragment F7 (aa 50-271) displayed on yeast as Aga2 fusion (Influenza A virus H5, Re8 vaccine …, UniProt Q9Q0U6, strain); assay: immunostaining of cells or tissue; details: one partner purified

B1: Nb10 with Twin-Strep-tag (VHH)
VHH: QVQLQESGGGSVQAGGSLRLSCSASEYTRSMAWFRQVPGKEREGVAAIDTGNGNTYYPTVDGRFIISRGNAKNSVDLEMNSLTPDDTAIYYCAATQGPLWPTLGTQFSTESYNYWGQGTLVTVSS
**Q.** Does B1 bind [1]?
**A.** binds

**Q.** Does B1 bind [2]?
**A.** binds

Source: paper PMC12090751 (Journal of Virology, 2025)
